Experimental data from publication PMC9482650, “Quantitative fragmentomics allow affinity mapping of interactomes” (Nature Communications, 2022).

Target: FRMPD2_2, Q68DX3
Experiment: holdup assay
Design: key: below the threshold = too weak to quantify, mostly under pKd 3.1 to 4
Conditions: plain residues with an end cap or a label only (N-terminal biotin on a linker: ado-ado)

FRMPD2_2, Q68DX3, sequence (Q68DX3 944-1038): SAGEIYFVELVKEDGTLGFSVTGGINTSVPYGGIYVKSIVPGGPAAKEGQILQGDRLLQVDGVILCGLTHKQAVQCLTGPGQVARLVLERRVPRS

Row | Binder | pKd
1 | HLRQQGSVEV [EPHB6, O15197] | below the threshold
2 | FTLPAESSEI [PLEKHG7, Q6ZR37] | below the threshold

Target: MAGI2_5, Q86UL8
Sequence (Q86UL8 915-1017): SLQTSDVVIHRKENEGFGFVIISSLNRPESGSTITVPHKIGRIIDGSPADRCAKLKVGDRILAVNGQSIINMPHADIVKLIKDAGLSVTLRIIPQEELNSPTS
Experiment: holdup assay
Design: key: below the threshold = too weak to quantify, mostly under pKd 3.1 to 4
Conditions: plain residues with an end cap or a label only (N-terminal biotin on a linker: ado-ado)

Row | Binder | pKd
3 | HLRQQGSVEV [EPHB6, O15197] | below the threshold
4 | FTLPAESSEI [PLEKHG7, Q6ZR37] | below the threshold

Target: DLG1_2, Q12959
Sequence (Q12959 314-412): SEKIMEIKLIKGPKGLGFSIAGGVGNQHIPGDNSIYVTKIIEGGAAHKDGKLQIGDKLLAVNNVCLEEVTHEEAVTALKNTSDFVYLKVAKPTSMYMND
Experiment: holdup assay
Design: key: below the threshold = too weak to quantify, mostly under pKd 3.1 to 4
Conditions: plain residues with an end cap or a label only (N-terminal biotin on a linker: ado-ado)

Row | Binder | pKd
5 | HLRQQGSVEV [EPHB6, O15197] | 3.52
6 | FTLPAESSEI [PLEKHG7, Q6ZR37] | below the threshold

Target: PTPN3, P26045
Sequence (P26045 505-587): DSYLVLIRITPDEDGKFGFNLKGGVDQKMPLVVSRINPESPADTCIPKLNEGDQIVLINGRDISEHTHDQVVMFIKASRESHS
Experiment: holdup assay
Design: key: below the threshold = too weak to quantify, mostly under pKd 3.1 to 4
Conditions: plain residues with an end cap or a label only (N-terminal biotin on a linker: ado-ado)

Row | Binder | pKd
7 | HLRQQGSVEV [EPHB6, O15197] | below the threshold
8 | FTLPAESSEI [PLEKHG7, Q6ZR37] | 3.55

Target: MAGI2_6, Q86UL8
Sequence (Q86UL8 1141-1229): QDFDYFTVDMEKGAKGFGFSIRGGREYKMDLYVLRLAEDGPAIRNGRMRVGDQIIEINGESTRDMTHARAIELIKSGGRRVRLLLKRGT
Experiment: holdup assay
Design: key: below the threshold = too weak to quantify, mostly under pKd 3.1 to 4
Conditions: plain residues with an end cap or a label only (N-terminal biotin on a linker: ado-ado)

Row | Binder | pKd
9 | HLRQQGSVEV [EPHB6, O15197] | below the threshold
10 | FTLPAESSEI [PLEKHG7, Q6ZR37] | below the threshold

Target: T1, ARHGEF11, O15085
T1 sequence (O15085 42-136, limits assumed, looked up): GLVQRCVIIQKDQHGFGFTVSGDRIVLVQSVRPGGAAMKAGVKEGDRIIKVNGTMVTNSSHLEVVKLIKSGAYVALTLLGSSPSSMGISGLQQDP
Experiment: holdup assay
Design: key: below the threshold = too weak to quantify, mostly under pKd 3.1 to 4
Conditions: plain residues with an end cap or a label only (N-terminal biotin on a linker: ado-ado)

Row | Binder | pKd
11 | HLRQQGSVEV [EPHB6, O15197] | 4.13
12 | FTLPAESSEI [PLEKHG7, Q6ZR37] | below the threshold

Target: GORASP1, Q9BQQ3
Sequence (Q9BQQ3 1-208): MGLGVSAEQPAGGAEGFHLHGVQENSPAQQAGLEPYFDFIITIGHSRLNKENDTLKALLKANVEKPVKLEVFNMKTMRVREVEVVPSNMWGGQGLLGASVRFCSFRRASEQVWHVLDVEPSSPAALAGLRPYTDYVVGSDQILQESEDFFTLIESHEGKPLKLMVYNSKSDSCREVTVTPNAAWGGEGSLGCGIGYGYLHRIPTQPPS
Experiment: holdup assay
Design: key: below the threshold = too weak to quantify, mostly under pKd 3.1 to 4
Conditions: plain residues with an end cap or a label only (N-terminal biotin on a linker: ado-ado)

Row | Binder | pKd
13 | HLRQQGSVEV [EPHB6, O15197] | below the threshold
14 | FTLPAESSEI [PLEKHG7, Q6ZR37] | below the threshold

Target: Inadl_1, Q8NI35
Sequence (Q8NI35 113-229): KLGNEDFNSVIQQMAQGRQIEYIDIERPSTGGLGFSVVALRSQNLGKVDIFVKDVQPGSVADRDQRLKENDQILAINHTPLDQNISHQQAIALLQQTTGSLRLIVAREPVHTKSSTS
Experiment: holdup assay
Design: key: below the threshold = too weak to quantify, mostly under pKd 3.1 to 4
Conditions: plain residues with an end cap or a label only (N-terminal biotin on a linker: ado-ado)

Row | Binder | pKd
15 | HLRQQGSVEV [EPHB6, O15197] | below the threshold
16 | FTLPAESSEI [PLEKHG7, Q6ZR37] | below the threshold

Target: MAGI3_2, Q5TCQ9
Sequence (Q5TCQ9 398-503): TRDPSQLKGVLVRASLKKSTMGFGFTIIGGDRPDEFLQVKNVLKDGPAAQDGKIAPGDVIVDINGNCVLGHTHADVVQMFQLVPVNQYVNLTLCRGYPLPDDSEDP
Experiment: holdup assay
Design: key: below the threshold = too weak to quantify, mostly under pKd 3.1 to 4
Conditions: plain residues with an end cap or a label only (N-terminal biotin on a linker: ado-ado)

Row | Binder | pKd
17 | HLRQQGSVEV [EPHB6, O15197] | below the threshold
18 | FTLPAESSEI [PLEKHG7, Q6ZR37] | below the threshold

Target: T2, SNTA1, Q13424
T2 sequence (Q13424 82-180, limits assumed, looked up): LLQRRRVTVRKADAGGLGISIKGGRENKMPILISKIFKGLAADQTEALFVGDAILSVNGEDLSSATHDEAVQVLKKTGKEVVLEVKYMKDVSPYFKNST
Experiment: holdup assay
Design: key: below the threshold = too weak to quantify, mostly under pKd 3.1 to 4
Conditions: plain residues with an end cap or a label only (N-terminal biotin on a linker: ado-ado)

Row | Binder | pKd
19 | HLRQQGSVEV [EPHB6, O15197] | below the threshold
20 | FTLPAESSEI [PLEKHG7, Q6ZR37] | below the threshold

Target: T3, NHERF3_1, Q5T2W1
T3 sequence (Q5T2W1 4-100, limits assumed, looked up): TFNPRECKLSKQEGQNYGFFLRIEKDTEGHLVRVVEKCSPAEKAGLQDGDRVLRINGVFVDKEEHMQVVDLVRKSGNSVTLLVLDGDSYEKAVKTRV
Experiment: holdup assay
Design: key: below the threshold = too weak to quantify, mostly under pKd 3.1 to 4
Conditions: plain residues with an end cap or a label only (N-terminal biotin on a linker: ado-ado)

Row | Binder | pKd
21 | HLRQQGSVEV [EPHB6, O15197] | below the threshold
22 | FTLPAESSEI [PLEKHG7, Q6ZR37] | 3.52

Target: T4, GRIP1_3, Q9Y3R0
T4 sequence (Q9Y3R0 247-346, limits assumed, looked up): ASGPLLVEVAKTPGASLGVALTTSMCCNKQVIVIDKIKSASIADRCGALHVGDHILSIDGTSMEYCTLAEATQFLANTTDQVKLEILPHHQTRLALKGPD
Experiment: holdup assay
Design: key: below the threshold = too weak to quantify, mostly under pKd 3.1 to 4
Conditions: plain residues with an end cap or a label only (N-terminal biotin on a linker: ado-ado)

Row | Binder | pKd
23 | HLRQQGSVEV [EPHB6, O15197] | below the threshold
24 | FTLPAESSEI [PLEKHG7, Q6ZR37] | below the threshold

Target: MAGI2_2, Q86UL8
Sequence (Q86UL8 410-522): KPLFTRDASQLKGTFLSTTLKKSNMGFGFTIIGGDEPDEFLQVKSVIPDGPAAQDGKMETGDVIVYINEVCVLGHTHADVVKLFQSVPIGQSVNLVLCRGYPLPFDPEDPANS
Experiment: holdup assay
Design: key: below the threshold = too weak to quantify, mostly under pKd 3.1 to 4
Conditions: plain residues with an end cap or a label only (N-terminal biotin on a linker: ado-ado)

Row | Binder | pKd
25 | HLRQQGSVEV [EPHB6, O15197] | below the threshold
26 | FTLPAESSEI [PLEKHG7, Q6ZR37] | below the threshold

Target: T5, DFNB31_3, Q9P202
T5 sequence (Q9P202 811-907, limits assumed, looked up): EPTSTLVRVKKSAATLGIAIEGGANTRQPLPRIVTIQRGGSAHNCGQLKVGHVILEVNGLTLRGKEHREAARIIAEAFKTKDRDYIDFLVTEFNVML
Experiment: holdup assay
Design: key: below the threshold = too weak to quantify, mostly under pKd 3.1 to 4
Conditions: plain residues with an end cap or a label only (N-terminal biotin on a linker: ado-ado)

Row | Binder | pKd
27 | HLRQQGSVEV [EPHB6, O15197] | below the threshold
28 | FTLPAESSEI [PLEKHG7, Q6ZR37] | 3.63

Target: DLG2_3, Q15700
Experiment: holdup assay
Design: key: below the threshold = too weak to quantify, mostly under pKd 3.1 to 4
Conditions: plain residues with an end cap or a label only (N-terminal biotin on a linker: ado-ado)

Row | Binder | pKd
29 | HLRQQGSVEV [EPHB6, O15197] | below the threshold
30 | FTLPAESSEI [PLEKHG7, Q6ZR37] | 3.75

Target: NHERF4_2, Q86UT5
Sequence (Q86UT5 220-308): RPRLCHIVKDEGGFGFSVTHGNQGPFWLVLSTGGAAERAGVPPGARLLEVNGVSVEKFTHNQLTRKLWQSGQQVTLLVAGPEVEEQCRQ
Experiment: holdup assay
Design: key: below the threshold = too weak to quantify, mostly under pKd 3.1 to 4
Conditions: plain residues with an end cap or a label only (N-terminal biotin on a linker: ado-ado)

Row | Binder | pKd
31 | HLRQQGSVEV [EPHB6, O15197] | below the threshold
32 | FTLPAESSEI [PLEKHG7, Q6ZR37] | below the threshold

Target: T6, CARD11, Q9BXL7
T6 sequence (Q9BXL7 662-765, limits assumed, looked up): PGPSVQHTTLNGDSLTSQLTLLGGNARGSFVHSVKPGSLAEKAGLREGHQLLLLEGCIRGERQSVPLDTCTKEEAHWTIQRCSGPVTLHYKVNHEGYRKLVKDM
Experiment: holdup assay
Design: key: below the threshold = too weak to quantify, mostly under pKd 3.1 to 4
Conditions: plain residues with an end cap or a label only (N-terminal biotin on a linker: ado-ado)

Row | Binder | pKd
33 | HLRQQGSVEV [EPHB6, O15197] | below the threshold
34 | FTLPAESSEI [PLEKHG7, Q6ZR37] | below the threshold

Target: DLG1_3, Q12959
Sequence (Q12959 457-571): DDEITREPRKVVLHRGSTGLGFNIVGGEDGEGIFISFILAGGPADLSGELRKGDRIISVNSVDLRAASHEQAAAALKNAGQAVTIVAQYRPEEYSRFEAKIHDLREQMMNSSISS
Experiment: holdup assay
Design: key: below the threshold = too weak to quantify, mostly under pKd 3.1 to 4
Conditions: plain residues with an end cap or a label only (N-terminal biotin on a linker: ado-ado)

Row | Binder | pKd
35 | HLRQQGSVEV [EPHB6, O15197] | below the threshold
36 | FTLPAESSEI [PLEKHG7, Q6ZR37] | below the threshold

Target: SCRIB_3, Q14160
Sequence (Q14160 999-1103): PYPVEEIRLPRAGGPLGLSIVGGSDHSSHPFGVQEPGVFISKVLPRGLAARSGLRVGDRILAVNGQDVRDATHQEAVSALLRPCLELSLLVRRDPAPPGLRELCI
Experiment: holdup assay
Design: key: below the threshold = too weak to quantify, mostly under pKd 3.1 to 4
Conditions: plain residues with an end cap or a label only (N-terminal biotin on a linker: ado-ado)

Row | Binder | pKd
37 | HLRQQGSVEV [EPHB6, O15197] | below the threshold
38 | FTLPAESSEI [PLEKHG7, Q6ZR37] | 3.86

Target: Inadl_4, Q8NI35
Sequence (Q8NI35 547-651): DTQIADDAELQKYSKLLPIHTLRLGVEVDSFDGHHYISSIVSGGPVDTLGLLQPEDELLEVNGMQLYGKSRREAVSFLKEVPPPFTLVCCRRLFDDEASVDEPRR
Experiment: holdup assay
Design: key: below the threshold = too weak to quantify, mostly under pKd 3.1 to 4
Conditions: plain residues with an end cap or a label only (N-terminal biotin on a linker: ado-ado)

Row | Binder | pKd
39 | HLRQQGSVEV [EPHB6, O15197] | below the threshold
40 | FTLPAESSEI [PLEKHG7, Q6ZR37] | below the threshold

Target: T7, LNX2_3, Q8N448
T7 sequence (Q8N448 463-564, limits assumed, looked up): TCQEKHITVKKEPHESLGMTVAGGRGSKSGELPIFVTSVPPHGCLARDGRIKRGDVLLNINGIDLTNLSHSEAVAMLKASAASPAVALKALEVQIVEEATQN
Experiment: holdup assay
Design: key: below the threshold = too weak to quantify, mostly under pKd 3.1 to 4
Conditions: plain residues with an end cap or a label only (N-terminal biotin on a linker: ado-ado)

Row | Binder | pKd
41 | HLRQQGSVEV [EPHB6, O15197] | below the threshold
42 | FTLPAESSEI [PLEKHG7, Q6ZR37] | below the threshold

Target: T8, GRIP1_5, Q9Y3R0
T8 sequence (Q9Y3R0 568-668, limits assumed, looked up): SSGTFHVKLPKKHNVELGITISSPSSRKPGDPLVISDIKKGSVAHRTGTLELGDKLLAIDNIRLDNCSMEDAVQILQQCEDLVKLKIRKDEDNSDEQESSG
Experiment: holdup assay
Design: key: below the threshold = too weak to quantify, mostly under pKd 3.1 to 4
Conditions: plain residues with an end cap or a label only (N-terminal biotin on a linker: ado-ado)

Row | Binder | pKd
43 | HLRQQGSVEV [EPHB6, O15197] | below the threshold
44 | FTLPAESSEI [PLEKHG7, Q6ZR37] | below the threshold

Target: T9, MPDZ_10, O75970
T9 sequence (O75970 1624-1722, limits assumed, looked up): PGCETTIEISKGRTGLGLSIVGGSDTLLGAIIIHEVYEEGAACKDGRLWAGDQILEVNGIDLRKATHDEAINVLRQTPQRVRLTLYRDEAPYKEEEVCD
Experiment: holdup assay
Design: key: below the threshold = too weak to quantify, mostly under pKd 3.1 to 4
Conditions: plain residues with an end cap or a label only (N-terminal biotin on a linker: ado-ado)

Row | Binder | pKd
45 | HLRQQGSVEV [EPHB6, O15197] | below the threshold
46 | FTLPAESSEI [PLEKHG7, Q6ZR37] | below the threshold

Target: GRIP2_5, Q9C0E4
Sequence (Q9C0E4 544-642): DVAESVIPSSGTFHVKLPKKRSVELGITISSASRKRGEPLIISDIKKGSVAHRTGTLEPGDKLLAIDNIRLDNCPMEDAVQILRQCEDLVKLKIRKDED
Experiment: holdup assay
Design: key: below the threshold = too weak to quantify, mostly under pKd 3.1 to 4
Conditions: plain residues with an end cap or a label only (N-terminal biotin on a linker: ado-ado)

Row | Binder | pKd
47 | HLRQQGSVEV [EPHB6, O15197] | below the threshold
48 | FTLPAESSEI [PLEKHG7, Q6ZR37] | below the threshold

Target: HTRA2, O43464
Sequence (O43464 355-458): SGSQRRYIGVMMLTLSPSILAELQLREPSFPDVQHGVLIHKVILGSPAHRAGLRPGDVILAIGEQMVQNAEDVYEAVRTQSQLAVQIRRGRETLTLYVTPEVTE
Experiment: holdup assay
Design: key: below the threshold = too weak to quantify, mostly under pKd 3.1 to 4
Conditions: plain residues with an end cap or a label only (N-terminal biotin on a linker: ado-ado)

Row | Binder | pKd
49 | HLRQQGSVEV [EPHB6, O15197] | below the threshold
50 | FTLPAESSEI [PLEKHG7, Q6ZR37] | below the threshold

Target: GRIP2_3, Q9C0E4
Sequence (Q9C0E4 238-339): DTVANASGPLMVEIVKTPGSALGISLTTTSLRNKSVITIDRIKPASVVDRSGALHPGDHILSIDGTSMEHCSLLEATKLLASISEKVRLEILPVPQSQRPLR
Experiment: holdup assay
Design: key: below the threshold = too weak to quantify, mostly under pKd 3.1 to 4
Conditions: plain residues with an end cap or a label only (N-terminal biotin on a linker: ado-ado)

Row | Binder | pKd
51 | HLRQQGSVEV [EPHB6, O15197] | below the threshold
52 | FTLPAESSEI [PLEKHG7, Q6ZR37] | below the threshold

Target: T10, RADIL, Q96JH8
T10 sequence (Q96JH8 971-1071, limits assumed, looked up): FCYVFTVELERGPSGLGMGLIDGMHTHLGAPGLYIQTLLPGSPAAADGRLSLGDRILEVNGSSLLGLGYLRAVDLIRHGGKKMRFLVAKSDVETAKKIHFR
Experiment: holdup assay
Design: key: below the threshold = too weak to quantify, mostly under pKd 3.1 to 4
Conditions: plain residues with an end cap or a label only (N-terminal biotin on a linker: ado-ado)

Row | Binder | pKd
53 | HLRQQGSVEV [EPHB6, O15197] | 3.74
54 | FTLPAESSEI [PLEKHG7, Q6ZR37] | below the threshold
